Data taken from patent US20120219562A1 (AbbVie / Abbott, published 2012).

Biological target: T1, human interleukin 12 (p70 heterodimer of p35 and p40) (human, UniProt P29459 23-219; P29460 23-328)
T1 construct: Recombinant human IL-12; also called hIL-12; IL-12
T1 sequence (looked up) 1: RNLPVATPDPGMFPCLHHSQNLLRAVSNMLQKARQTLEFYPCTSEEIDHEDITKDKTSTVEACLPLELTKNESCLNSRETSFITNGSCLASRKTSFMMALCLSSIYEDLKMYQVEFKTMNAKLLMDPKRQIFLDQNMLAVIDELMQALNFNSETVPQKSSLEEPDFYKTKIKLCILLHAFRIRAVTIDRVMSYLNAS
T1 sequence (looked up) 2: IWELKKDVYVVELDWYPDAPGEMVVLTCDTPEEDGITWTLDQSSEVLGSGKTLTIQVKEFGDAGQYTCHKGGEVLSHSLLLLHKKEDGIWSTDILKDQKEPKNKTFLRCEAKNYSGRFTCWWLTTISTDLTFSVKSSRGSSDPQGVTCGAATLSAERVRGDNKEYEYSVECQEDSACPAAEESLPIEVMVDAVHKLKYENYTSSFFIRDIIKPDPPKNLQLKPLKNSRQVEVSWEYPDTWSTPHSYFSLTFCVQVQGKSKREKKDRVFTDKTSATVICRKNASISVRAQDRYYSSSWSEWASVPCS
Assay: SPR (BIAcore), off-rate

koff	Binder
0.000384 s⁻¹	SEQ ID NO: 480 (Y61, E at L31) (antibody, V domains shown) VH: QVQLVQSGGGVVQPGRSLRLSCAASGFTFSSYGMHWVRQAPGKGLEWVAFIRYDGSNKYYADSVKGRFTISRDNSKNTLYLQMKSLRAEDTAVYYCKTHGSHDNWGQGTMVTVSS VL: SYVLTQPPSVSGTPGQRVTISCSGGRSNIGSETVKWYQQLPGTAPKLLIYGNDQRPSGVPDRFSGSKSGTSASLAITGVQAEDEADYYCQSYDRGTHPALLFGTGTKVTVLG
0.000392 s⁻¹	SEQ ID NO: 481 (Y61, S at L31) (antibody, V domains shown) VH: QVQLVQSGGGVVQPGRSLRLSCAASGFTFSSYGMHWVRQAPGKGLEWVAFIRYDGSNKYYADSVKGRFTISRDNSKNTLYLQMKSLRAEDTAVYYCKTHGSHDNWGQGTMVTVSS VL: SYVLTQPPSVSGTPGQRVTISCSGGRSNIGSSTVKWYQQLPGTAPKLLIYGNDQRPSGVPDRFSGSKSGTSASLAITGVQAEDEADYYCQSYDRGTHPALLFGTGTKVTVLG
0.000357 s⁻¹	SEQ ID NO: 482 (Y61, Y at L31) (antibody, V domains shown) VH: QVQLVQSGGGVVQPGRSLRLSCAASGFTFSSYGMHWVRQAPGKGLEWVAFIRYDGSNKYYADSVKGRFTISRDNSKNTLYLQMKSLRAEDTAVYYCKTHGSHDNWGQGTMVTVSS VL: SYVLTQPPSVSGTPGQRVTISCSGGRSNIGSYTVKWYQQLPGTAPKLLIYGNDQRPSGVPDRFSGSKSGTSASLAITGVQAEDEADYYCQSYDRGTHPALLFGTGTKVTVLG
0.000315 s⁻¹	SEQ ID NO: 483 (Y61, H at L31) (antibody, V domains shown) VH: QVQLVQSGGGVVQPGRSLRLSCAASGFTFSSYGMHWVRQAPGKGLEWVAFIRYDGSNKYYADSVKGRFTISRDNSKNTLYLQMKSLRAEDTAVYYCKTHGSHDNWGQGTMVTVSS VL: SYVLTQPPSVSGTPGQRVTISCSGGRSNIGSHTVKWYQQLPGTAPKLLIYGNDQRPSGVPDRFSGSKSGTSASLAITGVQAEDEADYYCQSYDRGTHPALLFGTGTKVTVLG
0.000331 s⁻¹	SEQ ID NO: 484 (Y61, K at L31) (antibody, V domains shown) VH: QVQLVQSGGGVVQPGRSLRLSCAASGFTFSSYGMHWVRQAPGKGLEWVAFIRYDGSNKYYADSVKGRFTISRDNSKNTLYLQMKSLRAEDTAVYYCKTHGSHDNWGQGTMVTVSS VL: SYVLTQPPSVSGTPGQRVTISCSGGRSNIGSKTVKWYQQLPGTAPKLLIYGNDQRPSGVPDRFSGSKSGTSASLAITGVQAEDEADYYCQSYDRGTHPALLFGTGTKVTVLG
0.000292 s⁻¹	SEQ ID NO: 486 (Y61, Q at L31) (antibody, V domains shown) VH: QVQLVQSGGGVVQPGRSLRLSCAASGFTFSSYGMHWVRQAPGKGLEWVAFIRYDGSNKYYADSVKGRFTISRDNSKNTLYLQMKSLRAEDTAVYYCKTHGSHDNWGQGTMVTVSS VL: SYVLTQPPSVSGTPGQRVTISCSGGRSNIGSQTVKWYQQLPGTAPKLLIYGNDQRPSGVPDRFSGSKSGTSASLAITGVQAEDEADYYCQSYDRGTHPALLFGTGTKVTVLG
0.000309 s⁻¹	SEQ ID NO: 487 (Y61, T at L31) (antibody, V domains shown) VH: QVQLVQSGGGVVQPGRSLRLSCAASGFTFSSYGMHWVRQAPGKGLEWVAFIRYDGSNKYYADSVKGRFTISRDNSKNTLYLQMKSLRAEDTAVYYCKTHGSHDNWGQGTMVTVSS VL: SYVLTQPPSVSGTPGQRVTISCSGGRSNIGSTTVKWYQQLPGTAPKLLIYGNDQRPSGVPDRFSGSKSGTSASLAITGVQAEDEADYYCQSYDRGTHPALLFGTGTKVTVLG
0.000366 s⁻¹	SEQ ID NO: 488 (Y61, G at L31) (antibody, V domains shown) VH: QVQLVQSGGGVVQPGRSLRLSCAASGFTFSSYGMHWVRQAPGKGLEWVAFIRYDGSNKYYADSVKGRFTISRDNSKNTLYLQMKSLRAEDTAVYYCKTHGSHDNWGQGTMVTVSS VL: SYVLTQPPSVSGTPGQRVTISCSGGRSNIGSGTVKWYQQLPGTAPKLLIYGNDQRPSGVPDRFSGSKSGTSASLAITGVQAEDEADYYCQSYDRGTHPALLFGTGTKVTVLG
0.000174 s⁻¹	SEQ ID NO: 489 (Y61, M at L31) (antibody, V domains shown) VH: QVQLVQSGGGVVQPGRSLRLSCAASGFTFSSYGMHWVRQAPGKGLEWVAFIRYDGSNKYYADSVKGRFTISRDNSKNTLYLQMKSLRAEDTAVYYCKTHGSHDNWGQGTMVTVSS VL: SYVLTQPPSVSGTPGQRVTISCSGGRSNIGSMTVKWYQQLPGTAPKLLIYGNDQRPSGVPDRFSGSKSGTSASLAITGVQAEDEADYYCQSYDRGTHPALLFGTGTKVTVLG
9.7e-05 s⁻¹	SEQ ID NO: 490 (Y61, I at L31) (antibody, V domains shown) VH: QVQLVQSGGGVVQPGRSLRLSCAASGFTFSSYGMHWVRQAPGKGLEWVAFIRYDGSNKYYADSVKGRFTISRDNSKNTLYLQMKSLRAEDTAVYYCKTHGSHDNWGQGTMVTVSS VL: SYVLTQPPSVSGTPGQRVTISCSGGRSNIGSITVKWYQQLPGTAPKLLIYGNDQRPSGVPDRFSGSKSGTSASLAITGVQAEDEADYYCQSYDRGTHPALLFGTGTKVTVLG
0.000252 s⁻¹	SEQ ID NO: 491 (Y61, D at L32) (antibody, V domains shown) VH: QVQLVQSGGGVVQPGRSLRLSCAASGFTFSSYGMHWVRQAPGKGLEWVAFIRYDGSNKYYADSVKGRFTISRDNSKNTLYLQMKSLRAEDTAVYYCKTHGSHDNWGQGTMVTVSS VL: SYVLTQPPSVSGTPGQRVTISCSGGRSNIGSNDVKWYQQLPGTAPKLLIYGNDQRPSGVPDRFSGSKSGTSASLAITGVQAEDEADYYCQSYDRGTHPALLFGTGTKVTVLG
0.00381 s⁻¹	SEQ ID NO: 492 (Y61, C at L32) (antibody, V domains shown) VH: QVQLVQSGGGVVQPGRSLRLSCAASGFTFSSYGMHWVRQAPGKGLEWVAFIRYDGSNKYYADSVKGRFTISRDNSKNTLYLQMKSLRAEDTAVYYCKTHGSHDNWGQGTMVTVSS VL: SYVLTQPPSVSGTPGQRVTISCSGGRSNIGSNCVKWYQQLPGTAPKLLIYGNDQRPSGVPDRFSGSKSGTSASLAITGVQAEDEADYYCQSYDRGTHPALLFGTGTKVTVLG
0.00191 s⁻¹	SEQ ID NO: 493 (Y61, S at L32) (antibody, V domains shown) VH: QVQLVQSGGGVVQPGRSLRLSCAASGFTFSSYGMHWVRQAPGKGLEWVAFIRYDGSNKYYADSVKGRFTISRDNSKNTLYLQMKSLRAEDTAVYYCKTHGSHDNWGQGTMVTVSS VL: SYVLTQPPSVSGTPGQRVTISCSGGRSNIGSNSVKWYQQLPGTAPKLLIYGNDQRPSGVPDRFSGSKSGTSASLAITGVQAEDEADYYCQSYDRGTHPALLFGTGTKVTVLG
0.000213 s⁻¹	SEQ ID NO: 494 (Y61, Y at L32) (antibody, V domains shown) VH: QVQLVQSGGGVVQPGRSLRLSCAASGFTFSSYGMHWVRQAPGKGLEWVAFIRYDGSNKYYADSVKGRFTISRDNSKNTLYLQMKSLRAEDTAVYYCKTHGSHDNWGQGTMVTVSS VL: SYVLTQPPSVSGTPGQRVTISCSGGRSNIGSNYVKWYQQLPGTAPKLLIYGNDQRPSGVPDRFSGSKSGTSASLAITGVQAEDEADYYCQSYDRGTHPALLFGTGTKVTVLG
0.00026 s⁻¹	SEQ ID NO: 495 (Y61, H at L32) (antibody, V domains shown) VH: QVQLVQSGGGVVQPGRSLRLSCAASGFTFSSYGMHWVRQAPGKGLEWVAFIRYDGSNKYYADSVKGRFTISRDNSKNTLYLQMKSLRAEDTAVYYCKTHGSHDNWGQGTMVTVSS VL: SYVLTQPPSVSGTPGQRVTISCSGGRSNIGSNHVKWYQQLPGTAPKLLIYGNDQRPSGVPDRFSGSKSGTSASLAITGVQAEDEADYYCQSYDRGTHPALLFGTGTKVTVLG
0.000318 s⁻¹	SEQ ID NO: 496 (Y61, K at L32) (antibody, V domains shown) VH: QVQLVQSGGGVVQPGRSLRLSCAASGFTFSSYGMHWVRQAPGKGLEWVAFIRYDGSNKYYADSVKGRFTISRDNSKNTLYLQMKSLRAEDTAVYYCKTHGSHDNWGQGTMVTVSS VL: SYVLTQPPSVSGTPGQRVTISCSGGRSNIGSNKVKWYQQLPGTAPKLLIYGNDQRPSGVPDRFSGSKSGTSASLAITGVQAEDEADYYCQSYDRGTHPALLFGTGTKVTVLG
0.0069 s⁻¹	SEQ ID NO: 497 (Y61, R at L32) (antibody, V domains shown) VH: QVQLVQSGGGVVQPGRSLRLSCAASGFTFSSYGMHWVRQAPGKGLEWVAFIRYDGSNKYYADSVKGRFTISRDNSKNTLYLQMKSLRAEDTAVYYCKTHGSHDNWGQGTMVTVSS VL: SYVLTQPPSVSGTPGQRVTISCSGGRSNIGSNRVKWYQQLPGTAPKLLIYGNDQRPSGVPDRFSGSKSGTSASLAITGVQAEDEADYYCQSYDRGTHPALLFGTGTKVTVLG
0.00197 s⁻¹	SEQ ID NO: 498 (Y61, N at L32) (antibody, V domains shown) VH: QVQLVQSGGGVVQPGRSLRLSCAASGFTFSSYGMHWVRQAPGKGLEWVAFIRYDGSNKYYADSVKGRFTISRDNSKNTLYLQMKSLRAEDTAVYYCKTHGSHDNWGQGTMVTVSS VL: SYVLTQPPSVSGTPGQRVTISCSGGRSNIGSNNVKWYQQLPGTAPKLLIYGNDQRPSGVPDRFSGSKSGTSASLAITGVQAEDEADYYCQSYDRGTHPALLFGTGTKVTVLG
0.00247 s⁻¹	SEQ ID NO: 499 (Y61, Q at L32) (antibody, V domains shown) VH: QVQLVQSGGGVVQPGRSLRLSCAASGFTFSSYGMHWVRQAPGKGLEWVAFIRYDGSNKYYADSVKGRFTISRDNSKNTLYLQMKSLRAEDTAVYYCKTHGSHDNWGQGTMVTVSS VL: SYVLTQPPSVSGTPGQRVTISCSGGRSNIGSNQVKWYQQLPGTAPKLLIYGNDQRPSGVPDRFSGSKSGTSASLAITGVQAEDEADYYCQSYDRGTHPALLFGTGTKVTVLG
0.00191 s⁻¹	SEQ ID NO: 501 (Y61, A at L32) (antibody, V domains shown) VH: QVQLVQSGGGVVQPGRSLRLSCAASGFTFSSYGMHWVRQAPGKGLEWVAFIRYDGSNKYYADSVKGRFTISRDNSKNTLYLQMKSLRAEDTAVYYCKTHGSHDNWGQGTMVTVSS VL: SYVLTQPPSVSGTPGQRVTISCSGGRSNIGSNAVKWYQQLPGTAPKLLIYGNDQRPSGVPDRFSGSKSGTSASLAITGVQAEDEADYYCQSYDRGTHPALLFGTGTKVTVLG
